What all share (type): biochemical
The target in data set [1] is T1, Bovine articular cartilage aggrecan (Glu373-Ala374 bond) (Bos taurus, UniProt P13608).
T1 construct: Bovine articular cartilage aggrecan was incubated with purified ADAMTS-8 or ADAMTS-4; from tissue; host or cells: bovine articular cartilage
In words: Western blotting of enzyme-digested aggrecan with neoepitope antibodies (MAb BC-3, MAb AGG-C1, MAb BC-14). The protocol:
Detailed procedures for Western blot analyses are set forth below. Bovine articular cartilage aggrecan was incubated with purified ADAMTS-8 or ADAMTS-4 for 16 h at 37° C. in 50 mM Tris, pH 7.3, containing 100 mM NaCl and 5 mM CaCl2. Digestion products were deglycosylated by incubation for 2 h at 37° C. in the presence of chondroitinase ABC (Seikagaku America, Falmouth, Mass.; 1 mU/μg aggrecan), keratanase (Seikagaku; 1 mU/μg aggrecan) and keratanase II (Seikagaku; 0.02 mU/μg aggrecan). Digestion products were separated on 4-12% Bis-Tris NuPAGE SDS PAGE gels (Invitrogen, Carlsbad, Calif.) and then electrophoretically transferred to nitrocellulose. Immunoreactive products were detected by Western blotting with MAb AGG-C1 (0.04 μg/ml) or MAb BC-3 (Caterson, et al., supra). Alkaline-phosphatase-conjugated secondary goat anti-mouse IgG (Promega Corp., Madison, Wis.; 1:7500) was subsequently incubated with the membranes, and NBT/BCIP substrate (Promega) was used to visualize immunoreactive bands. All antibody incubations were performed for 1 h at room temperature, and the immunoblots were incubated with the substrate for 5-15 min at room temperature to achieve optimum color development.

The target of another data set is bovine aggrecan (Bos taurus, UniProt P13608). Kind of data set: Competitive inhibition ELISA for aggrecanase activity (MAb AGG-C1). As to conditions: bovine aggrecan digested 16 h at 37° C.; for amount of enzyme required to generate 45% inhibition in the competitive inhibition ELISA: then MAb AGG-C1 added. The protocol: Streptavidin-coated microtiter plates (Pierce, Rockford, Ill.) were coated with N-terminally biotinylated peptide aggc1 (b-aggc1) by incubating each well with 100 μl of b-aggc1 (100 ng/ml) for 1 h at room temperature. After washing 4 times with phosphate-buffered saline containing 0.01% Tween-20 (PBS-Tween), wells were blocked for 1 h at room temperature with 100 μl of PBS-Tween containing 2% BSA, followed by 4 washes with PBS-Tween.
bovine aggrecan, sequence (P13608 17-2364): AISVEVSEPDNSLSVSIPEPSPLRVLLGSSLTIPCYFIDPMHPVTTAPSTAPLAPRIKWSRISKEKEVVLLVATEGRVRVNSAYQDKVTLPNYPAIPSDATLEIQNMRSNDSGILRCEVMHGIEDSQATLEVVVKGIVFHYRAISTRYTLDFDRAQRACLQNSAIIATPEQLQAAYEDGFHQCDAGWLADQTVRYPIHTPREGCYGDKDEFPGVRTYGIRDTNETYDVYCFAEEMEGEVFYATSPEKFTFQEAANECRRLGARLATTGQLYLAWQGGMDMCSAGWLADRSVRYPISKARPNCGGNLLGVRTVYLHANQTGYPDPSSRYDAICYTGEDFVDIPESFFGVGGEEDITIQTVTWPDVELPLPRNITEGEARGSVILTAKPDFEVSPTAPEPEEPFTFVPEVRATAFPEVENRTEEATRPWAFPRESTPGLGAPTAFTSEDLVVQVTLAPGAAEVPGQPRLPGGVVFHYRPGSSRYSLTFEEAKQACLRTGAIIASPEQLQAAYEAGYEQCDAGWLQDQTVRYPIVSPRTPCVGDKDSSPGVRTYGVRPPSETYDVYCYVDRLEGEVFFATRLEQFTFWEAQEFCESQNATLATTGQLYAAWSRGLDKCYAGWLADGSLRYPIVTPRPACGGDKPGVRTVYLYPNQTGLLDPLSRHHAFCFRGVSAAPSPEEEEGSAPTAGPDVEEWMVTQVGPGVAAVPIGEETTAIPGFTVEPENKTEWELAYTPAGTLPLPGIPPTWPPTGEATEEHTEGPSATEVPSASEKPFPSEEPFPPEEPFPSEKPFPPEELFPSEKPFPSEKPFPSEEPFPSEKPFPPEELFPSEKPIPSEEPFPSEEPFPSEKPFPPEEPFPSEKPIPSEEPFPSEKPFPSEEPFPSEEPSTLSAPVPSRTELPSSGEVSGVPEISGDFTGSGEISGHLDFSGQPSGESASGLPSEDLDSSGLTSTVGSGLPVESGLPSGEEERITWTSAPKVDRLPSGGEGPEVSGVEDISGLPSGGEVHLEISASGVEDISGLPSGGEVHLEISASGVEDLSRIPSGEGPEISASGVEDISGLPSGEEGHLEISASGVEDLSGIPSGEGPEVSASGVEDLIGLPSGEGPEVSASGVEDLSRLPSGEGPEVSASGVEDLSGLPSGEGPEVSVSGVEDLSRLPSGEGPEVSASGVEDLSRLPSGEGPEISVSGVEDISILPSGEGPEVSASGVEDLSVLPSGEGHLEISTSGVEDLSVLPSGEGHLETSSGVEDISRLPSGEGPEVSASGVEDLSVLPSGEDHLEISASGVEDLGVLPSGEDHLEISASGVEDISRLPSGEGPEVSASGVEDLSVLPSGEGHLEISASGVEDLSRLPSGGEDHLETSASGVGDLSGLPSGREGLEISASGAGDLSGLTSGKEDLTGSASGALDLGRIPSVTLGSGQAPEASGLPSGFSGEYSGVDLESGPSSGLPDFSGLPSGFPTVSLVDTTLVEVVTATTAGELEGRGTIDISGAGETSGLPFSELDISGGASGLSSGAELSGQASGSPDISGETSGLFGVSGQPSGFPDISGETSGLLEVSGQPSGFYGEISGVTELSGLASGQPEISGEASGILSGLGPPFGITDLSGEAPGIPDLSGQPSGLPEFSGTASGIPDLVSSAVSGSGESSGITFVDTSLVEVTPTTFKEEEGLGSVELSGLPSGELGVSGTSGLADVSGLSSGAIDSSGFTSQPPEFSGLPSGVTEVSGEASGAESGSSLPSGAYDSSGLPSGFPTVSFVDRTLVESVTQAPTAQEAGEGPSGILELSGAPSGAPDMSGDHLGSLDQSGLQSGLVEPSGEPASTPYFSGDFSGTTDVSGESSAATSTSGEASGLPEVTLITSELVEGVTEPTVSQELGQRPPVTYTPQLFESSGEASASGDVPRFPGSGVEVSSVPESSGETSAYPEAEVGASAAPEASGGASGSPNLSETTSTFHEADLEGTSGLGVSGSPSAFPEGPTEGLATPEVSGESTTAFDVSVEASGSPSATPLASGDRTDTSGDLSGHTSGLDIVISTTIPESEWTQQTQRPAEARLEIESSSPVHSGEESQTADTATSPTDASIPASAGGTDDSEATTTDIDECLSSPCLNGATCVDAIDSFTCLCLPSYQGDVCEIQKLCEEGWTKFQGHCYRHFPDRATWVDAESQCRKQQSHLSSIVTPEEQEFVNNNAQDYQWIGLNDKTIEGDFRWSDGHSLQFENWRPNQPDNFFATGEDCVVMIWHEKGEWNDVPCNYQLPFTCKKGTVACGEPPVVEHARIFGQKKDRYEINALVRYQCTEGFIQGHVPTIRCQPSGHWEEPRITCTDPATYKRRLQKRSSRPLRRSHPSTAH
In order to validate the neoepitope nature of MAb AGG-C1, competition mixtures (100 μl) comprised of MAb AGG-C1 (0.04 μg/ml) and 1.0-1000 nmol/ml of the synthetic peptides GGLPLPRNITEGE (SEQ ID NO:22), GGLPLPRNITEGE ARGSVILTVK-CONH2 (SEQ ID NO:23), undigested aggrecan, or ADAMTS-4 digested aggrecan were preincubated for 1 h at room temperature. Mixtures were then transferred to b-aggc1 coated wells. After a further incubation for 1 h at room temperature, the plates were washed 4 times with PBS-Tween then incubated for 1 h at room temperature with 100 μl of peroxidase-conjugated secondary goat anti-mouse IgG (1:10,000). Following 4 final washes with PBS-Tween, the wells were incubated with TMB 1 component microwell peroxidase substrate (BioFX Laboratories, Owings Mills, Md.). Color development was terminated by the addition of 0.18 M H2SO4, and the absorbance was monitored spectrophotometrically at 450 nm.
For the generation of a standard curve, bovine aggrecan (25 μg in 50 μl) was digested with ADAMTS-4 (0.001 ng-5 ng) for 16 h at 37° C. MAb AGG-C1 was then added to each digest (final antibody concentration of 0.04 μg/ml) and these mixtures were preincubated for 1 h at room temperature, followed by transfer to b-aggc1 coated plates and completion of the ELISA.
The standard curve was generated by incubating bovine aggrecan with increasing amounts of recombinant ADAMTS-4 for 16 h at 37° C. followed by addition of MAb AGG-C1 to each digest. Similar assays were performed to estimate the relative aggrecanase activity of ADAMTS-8.
(In general: ELISA stands for enzyme-linked immunosorbent assay.)

The target in another data set is T2, α-2 macroglobulin (Homo sapiens, UniProt P01023).
T2 sequence (P01023 24-1474): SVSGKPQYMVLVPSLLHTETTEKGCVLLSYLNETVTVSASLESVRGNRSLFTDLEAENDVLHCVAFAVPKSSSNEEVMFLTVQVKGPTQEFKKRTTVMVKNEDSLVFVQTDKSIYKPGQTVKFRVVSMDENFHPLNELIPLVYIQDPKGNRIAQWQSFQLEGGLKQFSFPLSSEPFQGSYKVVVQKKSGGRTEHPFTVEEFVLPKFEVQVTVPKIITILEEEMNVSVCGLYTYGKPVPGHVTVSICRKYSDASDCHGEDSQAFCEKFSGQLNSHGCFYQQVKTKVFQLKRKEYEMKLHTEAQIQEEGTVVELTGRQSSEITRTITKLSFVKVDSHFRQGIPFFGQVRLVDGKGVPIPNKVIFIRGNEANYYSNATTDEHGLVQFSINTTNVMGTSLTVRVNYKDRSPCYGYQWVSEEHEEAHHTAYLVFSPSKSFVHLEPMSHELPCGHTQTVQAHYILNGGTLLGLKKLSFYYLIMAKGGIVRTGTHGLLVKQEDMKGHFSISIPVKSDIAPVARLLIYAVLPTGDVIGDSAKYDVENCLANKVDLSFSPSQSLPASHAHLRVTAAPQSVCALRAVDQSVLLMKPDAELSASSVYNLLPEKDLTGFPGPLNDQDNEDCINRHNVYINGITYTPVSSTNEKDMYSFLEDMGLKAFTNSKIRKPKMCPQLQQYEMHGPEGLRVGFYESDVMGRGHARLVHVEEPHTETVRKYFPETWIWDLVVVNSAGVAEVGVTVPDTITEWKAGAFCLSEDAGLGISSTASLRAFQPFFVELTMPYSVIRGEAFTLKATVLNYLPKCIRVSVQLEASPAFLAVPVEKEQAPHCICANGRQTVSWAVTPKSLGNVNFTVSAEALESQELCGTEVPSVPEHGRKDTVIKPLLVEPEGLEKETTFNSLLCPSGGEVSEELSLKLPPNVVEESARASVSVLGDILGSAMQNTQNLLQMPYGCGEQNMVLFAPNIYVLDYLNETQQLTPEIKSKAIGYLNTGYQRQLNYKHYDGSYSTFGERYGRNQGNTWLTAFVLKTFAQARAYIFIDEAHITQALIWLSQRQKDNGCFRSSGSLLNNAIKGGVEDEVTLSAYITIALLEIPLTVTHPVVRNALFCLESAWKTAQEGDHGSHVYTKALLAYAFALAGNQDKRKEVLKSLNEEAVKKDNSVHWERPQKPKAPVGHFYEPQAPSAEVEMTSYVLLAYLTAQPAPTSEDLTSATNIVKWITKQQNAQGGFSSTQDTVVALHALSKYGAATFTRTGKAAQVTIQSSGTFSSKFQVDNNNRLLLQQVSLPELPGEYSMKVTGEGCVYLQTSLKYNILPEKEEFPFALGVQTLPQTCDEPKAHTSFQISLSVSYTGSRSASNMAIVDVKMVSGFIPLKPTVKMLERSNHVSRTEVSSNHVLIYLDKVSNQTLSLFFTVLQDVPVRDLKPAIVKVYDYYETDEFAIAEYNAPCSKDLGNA
Kind of data set: α2-macroglobulin assay of proteolytic activity. As to conditions: purified recombinant protein.

T1 sequence (P13608 17-2364): as the sequence (P13608 17-2364) above

B1: ADAMTS-8: Recombinant human full-length ADAMTS-8 with carboxy-terminal Strep-tag expressed in CHO cells; elution fraction holds pro- and mature forms (protein)
chain: RFVSEARFVETLLVADASMAAFYGADLQNHILTLMSVAARIYKHPSIKNSINLMVVKVLIVEDEKWGPEVSDNGGLTLRNFCNWQRRFNQPSDRHPEHYDTAILLTRQNFCGQEGLCDTLGVADIGTICDPNKSCSVIEDEGLQAAHTLAHELGHVLSMPHDDSKPCTRLFGPMGKHHVMAPLFVHLNQTLPWSPCSAMYLTELLDGGHGDCLLDAPRAALPLPTGLPGRMALYQLDQQCRQIFGPDFRHCPNTSAQDVCAQLWCHTDGAEPLCHTKNGSLPWADGTPCGPGHLCSEGSCLPEEEVERPKPVADGGWAPWGPWGECSRTCGGGVQFSHRECKDPEPQNGGRYCLGRRAKYQSCHTEECPPDGKSFREQQCEKYNAYNYTDMDGNLLQWVPKYAGVSPRDRCKLFCRARGRSEFKVFEAKVIDGTLCGPETLAICVRGQCVKAGCDHVVDSPRKLDKCGVCGGKGNSCRKVSGSLTPTNYGYNDIVTIPAGATNIDVKQRSHPGVQNDGNYLALKTADGQYLLNGNLAISAIEQDILVKGTILKYSGSIATLERLQSFRPLPEPLTVQLLTVPGEVFPPKVKYTFFVPNDVDFSMQSSKERATTNIIQPLLHAQWVLGDWSECSSTCGAGWQRRTVECRDPSGQASATCNKALKPEDAKPCESQLCPLGSGSAWSHPQFEK
Regarding B1, the “cleavage site specificity of aggrecanase activity” value in data set [1] (BC-3 and AGG-C1 Western blots) is reported as “specific for the Glu^373-Ala^374 site”. In addition, the “MAb BC-3 immunoreactive bands (cleavage at Glu373-Ala374)” value in data set [1] (MAb BC-3 Western blot, 16 h at 37° C.) is on record as “increased in intensity with increasing amounts”. Moreover, the “efficiency of cleaving cartilage aggrecan at Glu373-Ala374 compared with ADAMTS-4” value in data set [1] (same Western blots, FIGS. 6A-6C) was “less efficient than ADAMTS4”. For the same molecule, the “amount of enzyme required to generate 45% inhibition in the competitive inhibition ELISA” value with bovine aggrecan is 46.6 ± 4.8 pM. Also, the “proteolytic activity by α2-macroglobulin assay” value with α-2 macroglobulin is given as “verified”.

B2: C-terminally truncated ADAMTS-8: Recombinant ADAMTS-8 in which the C-terminal thrombospondin and spacer domains were deleted (protein)
chain: MLPAPAAPRWPPLLLLLLLLLLPLARGAPARPAAGGQASELVVPTRLPGSAGELALHLSAFGKGFVLRLAPDDSFLAPEFKIERLGGSGRATGGERGLRGCFFSGTVNGEPESLAAVSLCRGLSGSFLLDGEEFTIQPQGAGGSLAQPHRLQRWGPAGARPLPRGPEWEVETGEGQRQERGDHQEDSEEESQEEEAEGASEPPPPLGATSRTKRFVSEARFVETLLVADASMAAFYGADLQNHILTLMSVAARIYKHPSIKNSINLMVVKVLIVEDEKWGPEVSDNGGLTLRNFCNWQRRFNQPSDRHPEHYDTAILLTRQNFCGQEGLCDTLGVADIGTICDPNKSCSVIEDEGLQAAHTLAHELGHVLSMPHDDSKPCTRLFGPMGKHHVMAPLFVHLNQTLPWSPCSAMYLTELLDGGHGDCLLDAPRAALPLPTGLPGRMALYQLDQQCRQIFGPDFRHCPNTSAQDVCAQLWCHTDGAEPLCHTKNGSLPWADGTPCGPGHLCSEGSCLPEEEVERPKPVADGGWAPWGPWGECSRTCGGGVQFSHRECKDPEPQNGGRYCLGRRAKYQSCHTEECPPDGKSFREQQCEKYNAYNYTDMDGNLLQWVPKYAGVSPRDRCKLFCRARGRSEFKVFEAKVIDGTLCGPETLAICVRGQCVKAGCDHVVDSPRKLDKCGVCGGKGNSCRKVSGSLTPTNYGYNDIVTIPAGATNIDVKQRSHPGVQNDGNYLALKTADGQYLLNGNLAISAIEQDILVKGTILKYSGSIATLERLQSFRPLPEPLTVQLLTVPGEVFPPKVKYTFFVPNDVDFSMQSSKERATTNIIQPLLHAQWVLGDWSECSSTCGAGWQRRTVECRDPSGQASATCNKALKPEDAKPCESQLCPL
As to B2, the “activity on aggrecan substrate compared with full-length recombinant ADAMTS-8” value in data set [1] (AGG-C1 Western blotting) is listed as “no more active than full-length recombinant ADAMTS-8”. Further, the “proteolytic activity by α2-macroglobulin assay” value in the data set with α-2 macroglobulin is given as “active”.

B3: ADAMTS-4: Recombinant ADAMTS-4 used for comparison, spontaneously truncated and lacking the spacer domain (protein)
chain: FASLSRFVETLVVADDKMAAFHGAGLKRYLLTVMAAAAKAFKHPSIRNPVSLVVTRLVILGSGEEGPQVGPSAAQTLRSFCAWQRGLNTPEDSDPDHFDTAILFTRQDLCGVSTCDTLGMADVGTVCDPARSCAIVEDDGLQSAFTAAHELGHVFNMLHDNSKPCISLNGPLSTSRHVMAPVMAHVDPEEPWSPCSARFITDFLDNGYGHCLLDKPEAPLHLPVTFPGKDYDADRQCQLTFGPDSRHCPQLPPPCAALWCSGHLNGHAMCQTKHSPWADGTPCGPAQACMGGRCLHMDQLQDFNIPQAGGWGPWGPWGDCSRTCGGGVQFSSRDCTRPVPRNGGKYCEGRRTRFRSCNTEDCPTGSALTFREEQCAAYNHRTDLFKSFPGPMDWVPRYTGVAPQDQCKLTCQAQALGYYYVLEPRVVDGTPCSPDSSSVCVQGRCIHAGCDRIIGSKKKFDKCMVCGGDGSGCSKQSGSFRK
Turning to B3, in the data set with bovine aggrecan (FIG. 7 standard curve), the “amount of enzyme required to generate aggrecan cleavage product giving 45% inhibition in the competitive inhibition ELISA” value was “approximately 1 ng”. Besides, the “amount of enzyme required to generate 45% inhibition in the competitive inhibition ELISA” value with bovine aggrecan amounted to 0.0135 pM.
